This test concerns the target GST-SVV (UniProt O15392). Put plainly: native gel or EMSA; 0.5 μg recombinant protein in native sample buffer (no SDS, no β-mercaptoethanol) on a 15% or 6% native polyacrylamide gel; Western blot with anti-SVV or anti-cortactin; monomer and dimer bands. For orientation: A gel shift assay detects complexes by their altered migration in electrophoresis.

A word on the stoichiometry N: it is the number of molecules, sites or subunits per partner or assembly.

Consider GST-SVV (from UniProt O15392 1-142), for which the stoichiometry N was found to be 2.

(Values after paper PMC4981888.)
